Measurements reported in patent US9012420B2, “Aptamer for chymase, and use thereof” (Ribomic Inc., priority 2009, dated 2015).
Oligonucleotides are written 5' to 3', each unit as a sugar letter and its base; * is a phosphorothioate linkage, no mark a phosphodiester; rarer units and linkages stand in square brackets, end groups in braces. Plain capitals give the bases only. r = 2'-OH (RNA); f = 2'-fluoro

What was measured:
chymase (recombinant) [1] = biological target: T1, chymase (recombinant) (UniProt P23946 P23946:22-247); experiment: inhibition; SPR ++ (Table 2); conditions: tags: SIGMA, expressed in yeast
T1 sequence: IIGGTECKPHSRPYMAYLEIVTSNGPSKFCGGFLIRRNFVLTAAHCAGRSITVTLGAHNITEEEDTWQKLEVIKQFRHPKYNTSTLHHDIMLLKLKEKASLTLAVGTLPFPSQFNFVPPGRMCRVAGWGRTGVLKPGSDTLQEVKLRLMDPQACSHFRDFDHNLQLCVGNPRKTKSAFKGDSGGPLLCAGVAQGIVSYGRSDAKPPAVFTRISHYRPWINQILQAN
Method: (§1) Here, Suc is a protecting succinyl group, and MCA is a 4-methylcoumaryl-7-amide group; upon cleavage of the C-terminal side of phenylalanine, AMC (7-amino-4-methyl-coumarine) is released. By detecting the fluorescence of this AMC, the enzyme activity of chymase can be determined. The assay was performed using a 96-well plate (F16 Black Maxisorp Fluoronunc, manufactured by Nunc), with a reaction mixture volume of 100 μL, in solution C as a buffer solution. First, each nucleic acid was serially diluted to 0.0027-2 μM concentrations in solution C to obtain 50 μL solutions. After 10 μL of the 1 mM substrate prepared in solution C was added thereto, the plate was set to the microplate reader SpectraMax190 (manufactured by Molecular Devices Corporation), and incubated at 37° C. for 5 minutes. Separately, 0.05 μg (or 0.005 μg) of chymase (recombinant, manufactured by SIGMA) was diluted in solution C to obtain a 40 μL chymase solution, and incubated at 37° C. for 5 minutes. The chymase solution was added to the mixture of the nucleic acid and substrate to initiate an enzyme reaction. The final chymase concentration in the reaction mixture was 16.7 nM (or 1.67 nM), the final substrate concentration being 100 μM. The plate containing the reaction mixture was set to the microplate reader SpectraMax190 (manufactured by Molecular Devices Corporation), and examined for time-dependent changes in the fluorescence intensity at 37° C. for 5 minutes (or 30 minutes) (excitation wavelength 380 nm, detection wavelength 460 nm). A linear approximation of the increase in the fluorescence of the AMC released from the substrate by chymase activity was generated, and its slope was taken as the initial velocity […]. For control, samples were treated and analyzed in the same manner in two cases: use of a 30N or 40N (a nucleotide of 30 or 40 consecutive bases represented by N; N is A, G, C or T) nucleic acid pool (negative control), and use of chymostatin, a known chymotrypsin-like serine protease inhibitor (positive control). Taking the initial reaction velocity without the nucleic acid and inhibitor (V_0) as a 100% enzyme activity, the inhibitory rate of each test substance was calculated using the following equation: […]

chymase = biological target: T2, chymase (Homo sapiens, UniProt P23946); experiment: Surface plasmon resonance (Biacore T100), aptamer immobilized on SA chip, chymase injected as analyte; type: binding; conditions: Table 1; about 1000 RU nucleic acid immobilized, chymase 0.2 μM analyte, running buffer solution A; compared with 40N
T2 sequence (P23946 22-247): T1 sequence
Method: Binding strength is measured using Biacore T100 (manufactured by GE Healthcare). In a method of measurement, the aptamer is first immobilized onto a sensor chip, the amount immobilized being about 1000 RU. 20 μL of a chymase solution for analyte, prepared at 0.2 μM, is injected, and the binding of chymase to the aptamer is detected. An RNA comprising a random nucleotide sequence of 30 or 40 nucleotides is used as a negative control.
The binding activities against chymase of the nucleic acids shown by SEQ ID NO: 4-20 and 22-34 were determined by the surface plasmon resonance method using Biacore T100 (manufactured by GE Healthcare). The sensor chip used was the SA chip, which had streptavidin immobilized thereon. Bound thereto was about 1500 RU of a 16-nucleotide Poly dT with biotin bound to the 5′ end thereof. […] 20 μL of chymase for analyte, prepared at 0.2 μM, was injected. Solution A was used as a running buffer.
The binding activities against chymase of the nucleic acids shown by SEQ ID NO: 38-48 were evaluated by the surface plasmon resonance method. In the evaluations for SEQ ID NO: 38-48, measurements were taken in the same manner as Example 1. Solution C was used as a running buffer.

chymase (recombinant) [2] = biological target: T1, chymase (recombinant); experiment: inhibition; SPR ++; conditions: tags: SIGMA, expressed in yeast
Method: as §1
The chymase inhibitory activity was measured in the same manner as in Example 3.

B1: SEQ 46 (ssRNA)
RNA: GGGAGCAGGAGAGAGGUCAGAUGGGACAGAUAGAGUUAAAGUCCGUUACGUGGCCUAUGCGUGCUAGUGUGA
modifications: 2'-F pyrimidines
Chymase (recombinant) [1]
  IC50: 38 nM

B2: GGGACGGUAGGAAUUCGUCCCUCAUGUCUAUUUUGCAGAUAGACUUAAAGCAAACAUAGAAGAGCGGCCGC (nucleic acid)
chain: rGrGrGrAfCrGrGfUrArGrGrArAfUfUfCrGfUfCfCfCfUfCrAfUrGfUfCfUrAfUfUfUfUrGfCrArGrAfUrArGrAfCfUfUrArArArGfCrArArAfCrAfUrArGrArArGrArGfCrGrGfCfCrGfC
chymase
  Binding activity as determined using Biacore: equivalent binding activity compared with 40N

B3: 61(1) (ssRNA)
RNA: GGGUUAGAUAGAUUUAAAAACCC
modifications: G(M)G(M)G(M)U(F)U(F)AG(M)A(M)U(F)A(M)GAU(F)U(F)U(F)A(M)A(M)A(M)A(M)A(M)C(F)C(F)C(F) (M=2'-OMe, F=2'-F)
Chymase (recombinant) [2]
  IC50: 78 nM

B4: GGGACGGUAGGAAUUCCGCAACCAUCCCGUAACUAUGGUUAGAUAGAGUUAAAAACCAUAGAAGAGCGGCCGC (nucleic acid)
chain: GGGACGGUAGGAAUUCCGCAACCAUCCCGUAACUAUGGUUAGAUAGAGUUAAAAACCAUAGAAGAGCGGCCGC
modifications: chemistry not given here
chymase
  Binding activity as determined using Biacore: higher binding activity than 40N

B5: 56(38) (ssRNA)
RNA: GGGUUAGAUAGAGUUAAAAACCC
modifications: idT-G(M)G(M)G(M)U(F)U(F)sAsGAU(F)A(M)GAG(M)U(F)U(F)A(M)A(M)A(M)A(M)A(M)C(F)C(F)C(F)-idT (M=2'-OMe, F=2'-F, s=PS)
Chymase (recombinant) [2]
  IC50: 19 nM

B6: SEQ 71 (mixed)
mixed: GGGUUAGAUAGAGTUAAAAACCC
modifications: idT-G(M)G(M)G(M)U(F)U(F)AG(M)A(M)U(F)A(M)GAG(M)tU(F)A(M)A(M)A(M)A(M)A(M)C(F)C(F)C(F)-idT (lower case DNA)
Chymase (recombinant) [2]
  IC50: 28 nM

B7: SEQ 45 (ssRNA)
RNA: GGGAGCAGGAGAGAGGUCAGAUGGACCACCGAUGGGCAAGAUAGAGUUAAAUGCCUAUGCGUGCUAGUGUGA
modifications: 2'-F pyrimidines
Chymase (recombinant) [1]
  IC50: 74 nM

B8: GGGACGGUAGGAAUUCAGCUGACUCCAAUGCACACGUAGAUAGAGUUAAAACGUUGCAUAGAAGAGCGGCCGC (nucleic acid)
chain: rGrGrGrAfCrGrGfUrArGrGrArAfUfUfCrArGfCfUrGrAfCfUfCfCrArAfUrGfCrAfCrAfCrGfUrArGrAfUrArGrArGfUfUrArArArAfCrGfUfUrGfCrAfUrArGrArArGrArGfCrGrGfCfCrGfC
modifications: aptamer
chymase
  Binding activity as determined using Biacore: higher binding activity than 40N

B9: SEQ 38 (ssRNA)
RNA: GGGAGCAGGAGAGAGGUCAGAUGGAUAGAGUUAAGAUCUGGCUGGCGCAUUAGCCUAUGCGUGCUAGUGUGA
modifications: 2'-F pyrimidines
Chymase (recombinant) [1]
  IC50: 50 nM

B10: 56(32) (ssRNA)
RNA: GGGUUAGAUAGAGUUAAAAACCC
modifications: idT-G(M)G(M)G(M)U(F)U(F)AGAU(F)A(M)GAG(M)U(F)U(F)A(M)A(M)A(M)A(M)A(M)C(F)C(F)C(F)-idT (M=2'-OMe, F=2'-F)
Chymase (recombinant) [2]
  IC50: 17 nM

B11: GGGACGGUAGGAAUUCGUCGAUUCUACAGAUAGAGAUAAAGUAGAAUUUAACAAAACAUAGAAGAGCGGCCGC (nucleic acid)
chain: rGrGrGrAfCrGrGfUrArGrGrArAfUfUfCrGfUfCrGrAfUfUfCfUrAfCrArGrAfUrArGrArGrAfUrArArArGfUrArGrArAfUfUfUrArAfCrArArArAfCrAfUrArGrArArGrArGfCrGrGfCfCrGfC
modifications: aptamer
chymase
  Binding activity as determined using Biacore: higher binding activity than 40N

B12: SEQ 70 (mixed)
mixed: GGGTTAGAUAGAGUUAAAAACCC
modifications: idT-G(M)G(M)G(M)ttAG(M)A(M)U(F)A(M)GAG(M)U(F)U(F)A(M)A(M)A(M)A(M)A(M)C(F)C(F)C(F)-idT (lower case DNA)
Chymase (recombinant) [2]
  IC50: 27 nM

B13: SEQ 47 (ssRNA)
RNA: GGGAGCAGGAGAGAGGUCAGAUGGUGAUAGAUAGAGUUAAAAUCGCUGAAUGGCCUAUGCGUGCUAGUGUGA
modifications: 2'-F pyrimidines
Chymase (recombinant) [1]
  IC50: 58 nM

B14: GGGACGGUAGGAAUUCUCGUUCCUGACAGCAUUUGAGAUAGAUUUAAACAAACGCACAUAGAAGAGCGGCCGC (nucleic acid)
chain: GGGACGGUAGGAAUUCUCGUUCCUGACAGCAUUUGAGAUAGAUUUAAACAAACGCACAUAGAAGAGCGGCCGC
modifications: chemistry not given here
chymase
  Binding activity as determined using Biacore: higher binding activity than 40N
